PMC2733336 (Insect biochemistry and molecular biology, 2009)

T1: rLac2 (full-length recombinant laccase-2) (Manduca sexta, UniProt Q8I8Y0)
T1 sequence (Q8I8Y0 24-760): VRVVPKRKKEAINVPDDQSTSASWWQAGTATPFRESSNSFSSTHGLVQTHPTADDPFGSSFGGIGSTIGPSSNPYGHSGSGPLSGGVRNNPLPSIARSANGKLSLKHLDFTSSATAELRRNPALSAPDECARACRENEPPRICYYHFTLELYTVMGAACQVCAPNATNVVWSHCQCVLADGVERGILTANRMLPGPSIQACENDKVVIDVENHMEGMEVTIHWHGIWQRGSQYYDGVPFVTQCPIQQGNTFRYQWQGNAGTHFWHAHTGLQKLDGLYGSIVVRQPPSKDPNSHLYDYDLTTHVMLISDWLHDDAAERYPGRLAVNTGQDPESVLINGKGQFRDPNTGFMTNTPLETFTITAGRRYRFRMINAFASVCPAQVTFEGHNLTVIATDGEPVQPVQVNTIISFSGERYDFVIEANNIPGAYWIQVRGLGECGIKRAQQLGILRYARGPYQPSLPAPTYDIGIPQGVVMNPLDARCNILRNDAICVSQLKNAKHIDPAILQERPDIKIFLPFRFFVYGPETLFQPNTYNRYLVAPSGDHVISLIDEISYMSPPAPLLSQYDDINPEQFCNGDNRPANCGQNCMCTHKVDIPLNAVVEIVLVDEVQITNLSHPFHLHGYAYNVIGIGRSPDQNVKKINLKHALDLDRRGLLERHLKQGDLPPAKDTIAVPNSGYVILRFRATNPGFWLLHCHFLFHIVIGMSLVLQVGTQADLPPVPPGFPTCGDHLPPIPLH

T2: cLac2 (endogenous cuticular laccase-2) (Manduca sexta, UniProt Q8I8Y0)
T2 sequence (Q8I8Y0 142-760): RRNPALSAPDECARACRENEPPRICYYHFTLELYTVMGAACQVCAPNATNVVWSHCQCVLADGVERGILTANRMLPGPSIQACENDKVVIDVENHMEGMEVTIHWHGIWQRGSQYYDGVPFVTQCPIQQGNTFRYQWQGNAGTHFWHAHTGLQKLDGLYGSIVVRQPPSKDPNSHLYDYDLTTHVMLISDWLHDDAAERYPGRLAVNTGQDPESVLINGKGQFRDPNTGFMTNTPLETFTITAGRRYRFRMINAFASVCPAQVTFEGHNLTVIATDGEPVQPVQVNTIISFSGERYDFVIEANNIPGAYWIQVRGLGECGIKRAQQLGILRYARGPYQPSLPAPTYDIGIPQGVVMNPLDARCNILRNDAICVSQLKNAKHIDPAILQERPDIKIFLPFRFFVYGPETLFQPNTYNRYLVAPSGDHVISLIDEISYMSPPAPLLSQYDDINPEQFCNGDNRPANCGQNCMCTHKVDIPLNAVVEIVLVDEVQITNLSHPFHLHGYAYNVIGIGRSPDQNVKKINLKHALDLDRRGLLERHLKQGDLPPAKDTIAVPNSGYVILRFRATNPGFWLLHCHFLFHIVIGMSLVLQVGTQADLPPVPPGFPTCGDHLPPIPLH


Key:
[1] = molecular target: T1, rLac2 (full-length recombinant laccase-2); test: spectrophotometric, quinone formation at […] nm; format: biochemical; conditions: substrate inhibition (uncompetitive) constant; 100 mM sodium citrate pH 5; air
[2] = molecular target: T2, cLac2 (endogenous cuticular laccase-2); test: spectrophotometric, quinone formation at […] nm; format: biochemical; conditions: substrate inhibition (uncompetitive) constant; 100 mM sodium citrate pH 5; air
purified protein [3] = substrate: CC(=O)NCCc1ccc(O)c(O)c1; test: purified protein; format: biochemical, Manduca sexta; conditions: 100 mM sodium citrate pH 5, air
purified protein [4] = substrate: CCn1c(=NN=c2sc3cc(S(=O)(=O)O)ccc3n2CC)sc2cc(S(=O)(=O)O)ccc21; test: purified protein; format: biochemical, Manduca sexta; conditions: 100 mM sodium citrate pH 5, air, data not shown

Molecule	Ksi [1] [mM]	Ksi [2] [mM]	Km (purified protein [3]) [mM]	Vmax (purified protein [3]) [µM/min]	kcat (purified protein [3]) [s⁻¹]	kcat/Km (purified protein [3]) [M⁻¹ s⁻¹]	Km (purified protein [4]) [mM]	kcat (purified protein [4]) [min⁻¹]
NCCC(=O)NCCc1ccc(O)c(O)c1 [NBAD]	6.7 ± 1.4	9.7 ± 1.3	–	–	–	–	–	–
cLac2 (endogenous cuticular laccase-2) (Manduca sexta) (protein) RRNPALSAPDECARACRENEPPRICYYHFTLELYTVMGAACQVCAPNATNVVWSHCQCVLADGVERGILTANRMLPGPSIQACENDKVVIDVENHMEGMEVTIHWHGIWQRGSQYYDGVPFVTQCPIQQGNTFRYQWQGNAGTHFWHAHTGLQKLDGLYGSIVVRQPPSKDPNSHLYDYDLTTHVMLISDWLHDDAAERYPGRLAVNTGQDPESVLINGKGQFRDPNTGFMTNTPLETFTITAGRRYRFRMINAFASVCPAQVTFEGHNLTVIATDGEPVQPVQVNTIISFSGERYDFVIEANNIPGAYWIQVRGLGECGIKRAQQLGILRYARGPYQPSLPAPTYDIGIPQGVVMNPLDARCNILRNDAICVSQLKNAKHIDPAILQERPDIKIFLPFRFFVYGPETLFQPNTYNRYLVAPSGDHVISLIDEISYMSPPAPLLSQYDDINPEQFCNGDNRPANCGQNCMCTHKVDIPLNAVVEIVLVDEVQITNLSHPFHLHGYAYNVIGIGRSPDQNVKKINLKHALDLDRRGLLERHLKQGDLPPAKDTIAVPNSGYVILRFRATNPGFWLLHCHFLFHIVIGMSLVLQVGTQADLPPVPPGFPTCGDHLPPIPLH	–	–	0.63 ± 0.05	10.5 ± 0.25	4.83 ± 0.117	7670	1.5	460
rLac2 (full-length recombinant laccase-2) (Manduca sexta) (protein) VRVVPKRKKEAINVPDDQSTSASWWQAGTATPFRESSNSFSSTHGLVQTHPTADDPFGSSFGGIGSTIGPSSNPYGHSGSGPLSGGVRNNPLPSIARSANGKLSLKHLDFTSSATAELRRNPALSAPDECARACRENEPPRICYYHFTLELYTVMGAACQVCAPNATNVVWSHCQCVLADGVERGILTANRMLPGPSIQACENDKVVIDVENHMEGMEVTIHWHGIWQRGSQYYDGVPFVTQCPIQQGNTFRYQWQGNAGTHFWHAHTGLQKLDGLYGSIVVRQPPSKDPNSHLYDYDLTTHVMLISDWLHDDAAERYPGRLAVNTGQDPESVLINGKGQFRDPNTGFMTNTPLETFTITAGRRYRFRMINAFASVCPAQVTFEGHNLTVIATDGEPVQPVQVNTIISFSGERYDFVIEANNIPGAYWIQVRGLGECGIKRAQQLGILRYARGPYQPSLPAPTYDIGIPQGVVMNPLDARCNILRNDAICVSQLKNAKHIDPAILQERPDIKIFLPFRFFVYGPETLFQPNTYNRYLVAPSGDHVISLIDEISYMSPPAPLLSQYDDINPEQFCNGDNRPANCGQNCMCTHKVDIPLNAVVEIVLVDEVQITNLSHPFHLHGYAYNVIGIGRSPDQNVKKINLKHALDLDRRGLLERHLKQGDLPPAKDTIAVPNSGYVILRFRATNPGFWLLHCHFLFHIVIGMSLVLQVGTQADLPPVPPGFPTCGDHLPPIPLH	–	–	0.46 ± 0.05	3.1 ± 0.1	1.67 ± 0.05	3670	–	–
